Results reported in PMC5979959.

Biological target: human DNAJB6, cytosolic isoform B (human) (UniProt O75190)
Test: native gel or EMSA + other: negative stain electron microscopy; DNAJB6 oligomers fractionated by GraFix (5-30% sucrose, 0-0.2% glutaraldehyde gradient, 20 mM NaPO4, 150 mM NaCl, pH 8.0, 4 °C); fraction 5 analysed by blue native-PAGE and negative stain EM with single particle reconstruction

Chain of human DNAJB6, cytosolic isoform B, O75190-2 1-241 (natural protein; other documents disagree on this pair) (O75190 other isoform, or with tags, fused parts or gaps): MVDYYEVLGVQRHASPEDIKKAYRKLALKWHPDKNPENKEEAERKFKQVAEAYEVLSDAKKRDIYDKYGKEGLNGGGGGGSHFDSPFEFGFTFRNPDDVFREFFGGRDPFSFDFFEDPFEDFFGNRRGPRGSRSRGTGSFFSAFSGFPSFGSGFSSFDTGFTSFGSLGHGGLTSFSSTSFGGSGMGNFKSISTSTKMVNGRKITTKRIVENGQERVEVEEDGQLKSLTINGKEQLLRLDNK

Substance “human DNAJB6, cytosolic isoform B, O75190-2 1-241 (natural protein; other documents disagree on this pair)” has a stoichiometry N of 20 subunits.
